B1: scFv; the commonest letter at each place (parent)
chain 1: EVKLDETGGGLVQPGRPMKLSCVASGFTFSDYWMNWVRQSPEKGLEWVAQIRNKPYNYETYYSDSVKGRFTISRDDSKSSVYLQMNNLRVEDMGIYYCTGSYYGMDYWGQGTSVTVS
chain 2: DVVMTQTPLSLPVSLGDQASISCRSSQSLVHSNGNTYLRWYLQKPGQSPKVLIYKVSNRFSGVPDRFSGSGSGTDFTLKISRVEAEDLGVYFCSQSTHVPWTFGGGTKLEIK

Tests used:
fluorescein = variants of: B1; assay: Kd (Tite-Seq); details: with fluorescein; format: scFv 4-4-20, heavy + light
[1] = variants of: B1; assay: yeast surface expression (ratio to wild type); higher = more expressed; details: format: scFv 4-4-20, heavy + light

Variant: chain 1 Y102D D106Q
- Kd (fluorescein): ≥ 10 µM
- yeast surface expression [1]: 0.733

Variant: chain 1 G100Q S101Q
- Kd (fluorescein): ≥ 10 µM
- yeast surface expression [1]: 0.263

Variant: chain 1 S30D W33N
- Kd (fluorescein): ≥ 10 µM
- yeast surface expression [1]: 1.07

Variant: chain 1 G100N G104F
- Kd (fluorescein): ≥ 10 µM
- yeast surface expression [1]: 0.321

Variant: chain 1 G100I Y107D
- Kd (fluorescein): ≥ 10 µM
- yeast surface expression [1]: 0.381

Variant: chain 1 S30H D31L
- Kd (fluorescein): ≥ 10 µM
- yeast surface expression [1]: 0.608

Variant: chain 1 S30R W36G
- Kd (fluorescein): ≥ 10 µM
- yeast surface expression [1]: 0.171

Variant: chain 1 G100L G104S
- Kd (fluorescein): ≥ 10 µM
- yeast surface expression [1]: 0.51

Variant: chain 1 S101W Y103R G104S
- Kd (fluorescein): ≥ 10 µM
- yeast surface expression [1]: 0.468

Variant: chain 1 T28D D31L
- Kd (fluorescein): 0.000804 µM
- yeast surface expression [1]: 0.935

Variant: chain 1 F29D S30A
- Kd (fluorescein): ≥ 10 µM
- yeast surface expression [1]: 0.941

Variant: chain 1 Y103D Y107R
- Kd (fluorescein): ≥ 10 µM
- yeast surface expression [1]: 0.955

Variant: chain 1 W108M G109E
- Kd (fluorescein): 0.0944 µM
- yeast surface expression [1]: 0.408

Variant: chain 1 S101Y G104H
- Kd (fluorescein): ≥ 10 µM
- yeast surface expression [1]: 0.343

Variant: chain 1 Y107H W108T
- Kd (fluorescein): 0.000989 µM
- yeast surface expression [1]: 0.924

Variant: chain 1 T28C
- Kd (fluorescein): 0.00179 µM
- yeast surface expression [1]: 0.965

Variant: chain 1 T28G
- Kd (fluorescein): 0.0189 µM
- yeast surface expression [1]: 0.994

Variant: chain 1 T28F
- Kd (fluorescein): 0.00444 µM
- yeast surface expression [1]: 0.842

Variant: chain 1 G104D W108T
- Kd (fluorescein): ≥ 10 µM
- yeast surface expression [1]: 0.417

Variant: chain 1 D106H Y107D
- Kd (fluorescein): ≥ 10 µM
- yeast surface expression [1]: 0.284

Variant: chain 1 S101D Y107S
- Kd (fluorescein): ≥ 10 µM
- yeast surface expression [1]: 0.672

Variant: chain 1 T28S W36R
- Kd (fluorescein): 1.81 µM
- yeast surface expression [1]: 0.57

Variant: chain 1 G100M S101V
- Kd (fluorescein): ≥ 10 µM
- yeast surface expression [1]: 0.549

Variant: chain 1 Y107A W108A
- Kd (fluorescein): ≥ 10 µM
- yeast surface expression [1]: 0.351

Variant: chain 1 Y102Q Y103E
- Kd (fluorescein): ≥ 10 µM
- yeast surface expression [1]: 0.977

Variant: chain 1 T28F V37P
- Kd (fluorescein): 0.000589 µM
- yeast surface expression [1]: 0.417

Variant: chain 1 T28A Y32V
- Kd (fluorescein): ≥ 10 µM
- yeast surface expression [1]: 1.32

Variant: chain 1 Y32V V37L
- Kd (fluorescein): ≥ 10 µM
- yeast surface expression [1]: 0.677

Variant: chain 1 G100P Y102W
- Kd (fluorescein): ≥ 10 µM
- yeast surface expression [1]: 0.682

Variant: chain 1 S101L G109I
- Kd (fluorescein): ≥ 10 µM
- yeast surface expression [1]: 0.297

Variant: chain 1 G104S Y107S
- Kd (fluorescein): ≥ 10 µM
- yeast surface expression [1]: 0.437

Variant: chain 1 F29A V37P
- Kd (fluorescein): ≥ 10 µM
- yeast surface expression [1]: 0.153

Variant: chain 1 F29Q S30C N35I
- Kd (fluorescein): ≥ 10 µM
- yeast surface expression [1]: 0.232

Variant: chain 1 W108N G109N
- Kd (fluorescein): ≥ 10 µM
- yeast surface expression [1]: 0.335

Variant: chain 1 D31A M34L V37G
- Kd (fluorescein): 0.021 µM
- yeast surface expression [1]: 0.0111

Variant: chain 1 Y102N G104Q
- Kd (fluorescein): ≥ 10 µM
- yeast surface expression [1]: 0.924

Variant: chain 1 G100K W108H
- Kd (fluorescein): ≥ 10 µM
- yeast surface expression [1]: 0.249

Variant: chain 1 F29W S30I
- Kd (fluorescein): ≥ 10 µM
- yeast surface expression [1]: 0.599

Variant: chain 1 G100W S101D G109V
- Kd (fluorescein): ≥ 10 µM
- yeast surface expression [1]: 0.286

Variant: chain 1 T28G M34P N35T
- Kd (fluorescein): ≥ 10 µM
- yeast surface expression [1]: 0.318

Variant: chain 1 N35E W36E
- Kd (fluorescein): ≥ 10 µM
- yeast surface expression [1]: 1.23

Variant: chain 1 T28V Y32N
- Kd (fluorescein): ≥ 10 µM
- yeast surface expression [1]: 0.765

Variant: chain 1 F29A M34S
- Kd (fluorescein): ≥ 10 µM
- yeast surface expression [1]: 0.612

Variant: chain 1 G100D Y103C
- Kd (fluorescein): ≥ 10 µM
- yeast surface expression [1]: 0.414

Variant: chain 1 N35K V37M
- Kd (fluorescein): ≥ 10 µM
- yeast surface expression [1]: 0.48

Variant: chain 1 F29L V37P
- Kd (fluorescein): ≥ 10 µM
- yeast surface expression [1]: 0.419

Variant: chain 1 D31S M34I
- Kd (fluorescein): 0.004 µM
- yeast surface expression [1]: 0.757

Variant: chain 1 G100I S101Y Y107A
- Kd (fluorescein): ≥ 10 µM
- yeast surface expression [1]: 0.466

Variant: chain 1 T28V W33G
- Kd (fluorescein): ≥ 10 µM
- yeast surface expression [1]: 0.759

Variant: chain 1 S101A Y103E
- Kd (fluorescein): 0.00966 µM
- yeast surface expression [1]: 1.23

Variant: chain 1 S30F
- Kd (fluorescein): 0.00205 µM
- yeast surface expression [1]: 0.828

Variant: chain 1 S30V D31P
- Kd (fluorescein): ≥ 10 µM
- yeast surface expression [1]: 0.754

Variant: chain 1 S101I G109I
- Kd (fluorescein): ≥ 10 µM
- yeast surface expression [1]: 0.219

Variant: chain 1 Y32L M34T W36I
- Kd (fluorescein): ≥ 10 µM
- yeast surface expression [1]: 0.622

Variant: chain 1 G100F M105K
- Kd (fluorescein): ≥ 10 µM
- yeast surface expression [1]: 1.1

Variant: chain 1 T28A D31L
- Kd (fluorescein): 0.00655 µM
- yeast surface expression [1]: 0.713

Variant: chain 1 F29M D31N Y32A
- Kd (fluorescein): 0.00606 µM
- yeast surface expression [1]: 1.2

Variant: chain 1 Y103W Y107W
- Kd (fluorescein): 0.00966 µM
- yeast surface expression [1]: 0.724

Variant: chain 1 S101I G104T
- Kd (fluorescein): ≥ 10 µM
- yeast surface expression [1]: 0.4

Variant: chain 1 Y32F V37C
- Kd (fluorescein): 0.00142 µM
- yeast surface expression [1]: 0.914

Variant: chain 1 G100I G109I
- Kd (fluorescein): ≥ 10 µM
- yeast surface expression [1]: 0.25

Variant: chain 1 G104L G109K
- Kd (fluorescein): ≥ 10 µM
- yeast surface expression [1]: 0.179

Variant: chain 1 Y103C G104C
- Kd (fluorescein): ≥ 10 µM
- yeast surface expression [1]: 0.223

Variant: chain 1 Y107I G109K
- Kd (fluorescein): ≥ 10 µM
- yeast surface expression [1]: 0.234

Variant: chain 1 G100S M105W
- Kd (fluorescein): 5.37 µM
- yeast surface expression [1]: 0.758

Variant: chain 1 G100S M105R
- Kd (fluorescein): 0.311 µM
- yeast surface expression [1]: 0.929

Variant: chain 1 Y103C
- Kd (fluorescein): 0.00493 µM
- yeast surface expression [1]: 0.775

Variant: chain 1 Y103P
- Kd (fluorescein): ≥ 10 µM
- yeast surface expression [1]: 0.791

Variant: chain 1 S101L M105F
- Kd (fluorescein): ≥ 10 µM
- yeast surface expression [1]: 0.521

Variant: chain 1 Y102G G104L
- Kd (fluorescein): ≥ 10 µM
- yeast surface expression [1]: 0.816

Variant: chain 1 S101F M105L
- Kd (fluorescein): ≥ 10 µM
- yeast surface expression [1]: 0.483

Variant: chain 1 G104V G109W
- Kd (fluorescein): ≥ 10 µM
- yeast surface expression [1]: 1.57

Variant: chain 1 W108L G109I
- Kd (fluorescein): ≥ 10 µM
- yeast surface expression [1]: 0.203

Variant: chain 1 Y32E V37Y
- Kd (fluorescein): ≥ 10 µM
- yeast surface expression [1]: 0.806

Variant: chain 1 T28C V37N
- Kd (fluorescein): ≥ 10 µM
- yeast surface expression [1]: 0.357

Variant: chain 1 F29P D31R
- Kd (fluorescein): 0.0259 µM
- yeast surface expression [1]: 0.86

Variant: chain 1 G100E D106M
- Kd (fluorescein): ≥ 10 µM
- yeast surface expression [1]: 0.17

Variant: chain 1 W33N M34D
- Kd (fluorescein): ≥ 10 µM
- yeast surface expression [1]: 0.567

Variant: chain 1 F29W D31H
- Kd (fluorescein): 0.0221 µM
- yeast surface expression [1]: 0.626

Variant: chain 1 W33E V37T
- Kd (fluorescein): ≥ 10 µM
- yeast surface expression [1]: 0.486

Variant: chain 1 G100V S101H
- Kd (fluorescein): ≥ 10 µM
- yeast surface expression [1]: 0.872

Variant: chain 1 G100V S101M
- Kd (fluorescein): ≥ 10 µM
- yeast surface expression [1]: 0.712

Variant: chain 1 S30W Y32G
- Kd (fluorescein): 1.55 µM
- yeast surface expression [1]: 0.706

Variant: chain 1 Y102L G109M
- Kd (fluorescein): ≥ 10 µM
- yeast surface expression [1]: 0.185

Variant: chain 1 Y103W M105T
- Kd (fluorescein): ≥ 10 µM
- yeast surface expression [1]: 0.915

Variant: chain 1 Y103L G109M
- Kd (fluorescein): ≥ 10 µM
- yeast surface expression [1]: 0.208

Variant: chain 1 Y102D
- Kd (fluorescein): ≥ 10 µM
- yeast surface expression [1]: 1.16

Variant: chain 1 Y102C
- Kd (fluorescein): 0.00334 µM
- yeast surface expression [1]: 0.924

Variant: chain 1 Y102G
- Kd (fluorescein): 1.91 µM
- yeast surface expression [1]: 0.965

Variant: chain 1 Y107P W108A
- Kd (fluorescein): ≥ 10 µM
- yeast surface expression [1]: 0.455

Variant: chain 1 F29Q V37A
- Kd (fluorescein): 5.66 µM
- yeast surface expression [1]: 0.847

Variant: chain 1 S101N Y103N
- Kd (fluorescein): ≥ 10 µM
- yeast surface expression [1]: 1.21

Variant: chain 1 S101N Y103C
- Kd (fluorescein): ≥ 10 µM
- yeast surface expression [1]: 0.438

Variant: chain 1 S101N Y103L
- Kd (fluorescein): ≥ 10 µM
- yeast surface expression [1]: 0.964

Variant: chain 1 F29G W33K
- Kd (fluorescein): ≥ 10 µM
- yeast surface expression [1]: 0.65

Variant: chain 1 Y102H D106Q
- Kd (fluorescein): ≥ 10 µM
- yeast surface expression [1]: 0.937

Variant: chain 1 Y102H D106G
- Kd (fluorescein): ≥ 10 µM
- yeast surface expression [1]: 0.856

Variant: chain 1 T28R W36S
- Kd (fluorescein): ≥ 10 µM
- yeast surface expression [1]: 0.272

Variant: chain 1 Y102C G104D
- Kd (fluorescein): ≥ 10 µM
- yeast surface expression [1]: 0.919

Variant: chain 1 N35R W36P
- Kd (fluorescein): ≥ 10 µM
- yeast surface expression [1]: 0.809

Variant: chain 1 M105G
- Kd (fluorescein): ≥ 10 µM
- yeast surface expression [1]: 0.761

Variant: chain 1 Y32R M34S
- Kd (fluorescein): ≥ 10 µM
- yeast surface expression [1]: 0.191

Variant: chain 1 W36Q V37T
- Kd (fluorescein): ≥ 10 µM
- yeast surface expression [1]: 0.396

Variant: chain 1 Y32D W33E
- Kd (fluorescein): ≥ 10 µM
- yeast surface expression [1]: 0.525

Variant: chain 1 W108D G109Y
- Kd (fluorescein): ≥ 10 µM
- yeast surface expression [1]: 0.271

Variant: chain 1 M105C W108M
- Kd (fluorescein): 0.000389 µM
- yeast surface expression [1]: 0.656

Variant: chain 1 G100D W108R
- Kd (fluorescein): ≥ 10 µM
- yeast surface expression [1]: 0.146

Variant: chain 1 G100T M105W
- Kd (fluorescein): ≥ 10 µM
- yeast surface expression [1]: 0.733

Variant: chain 1 D31M Y32V
- Kd (fluorescein): ≥ 10 µM
- yeast surface expression [1]: 0.528

Variant: chain 1 G104L W108C
- Kd (fluorescein): ≥ 10 µM
- yeast surface expression [1]: 0.296

Variant: chain 1 G104L W108G
- Kd (fluorescein): ≥ 10 µM
- yeast surface expression [1]: 0.178

Variant: chain 1 Y32W N35T
- Kd (fluorescein): ≥ 10 µM
- yeast surface expression [1]: 0.786

Variant: chain 1 Y102W Y107S
- Kd (fluorescein): 0.0944 µM
- yeast surface expression [1]: 0.557

Variant: chain 1 G100D G109V
- Kd (fluorescein): ≥ 10 µM
- yeast surface expression [1]: 0.136

Variant: chain 1 W108S G109S
- Kd (fluorescein): 5.96 µM
- yeast surface expression [1]: 0.37
